{"source": "the domain aggregation screens of Martell et al. (2025)"}
{"experiment": "soluble fraction after stress (log2 fold change); higher = more stays soluble; pooled small domains, quantitative proteomics", "conditions": "stress: 50 degC", "in_short": "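Each library was heated to 50°C as a stress step. The libraries, made up of small protein domains, were pooled and analysed at high throughput by quantitative proteomics. The reported value is the base-two logarithm of the fold change in each protein's soluble amount after stress, taken as a measure of aggregation propensity. The higher the value, the more protein stays in solution.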"}
{"sequence": "HMAYQQITIKANVVNVRQGPGLSYDVMSQANKGETMNVISQKNNWYQVRLSGDKIGWVASWLVDNT", "soluble fraction (log2)": -1}
{"sequence": "HMRPKAIFVDVDDTLVRSVGQTRIPMPAVIAHIRRLHDAGHQLYLWSSGGADYARASAEELGIGQYFQAFL", "soluble fraction (log2)": -0.26}
{"sequence": "HMSKTQVKSVLDDIKGIGVVRRKALIKHFNDIEAIKAAQLAELKAVAGMDSKSAQSVYDFFHK", "soluble fraction (log2)": -0.186}
{"sequence": "HMTNELVNVNKLLDVMEPSIPLTALEIMTRLGIKSKETLRNSYLNPAIKLGMINLTSPLKPTSKNQMYYK", "soluble fraction (log2)": -0.307}
{"sequence": "HMDRPLRTKEHFARFAGEQVVVKTSSPIDGRSSFTGTLEGMEGDDVIVEVDGSRIAIGYSLIKRAHVVG", "soluble fraction (log2)": 0.117}
{"sequence": "HMRTAFPQLTERELEILDLIAAGRNNAQIASALYLAPKTVRNNVSNILAKLQATDRAEAIIRARDAGLGG", "soluble fraction (log2)": -0.0599}
{"sequence": "HMGDKVTIPNLIDMKLTDAQNQYKPQGFSIVKNGERESDKEAGTILEQDKAAGTEISGKDIRIFVVVSSGS", "soluble fraction (log2)": -0.00368}
{"sequence": "HMFPTLSPEEQRIVDQLAKENDLQANVIALRTALTIPQISALLFSLEMKGMVRLYAGGTYHLI", "soluble fraction (log2)": -2.81}
{"sequence": "HMEVEADEFQQLLRSGEYVQALDRARANQDIGLRQQQIVQIARHQAASGIQAGAMGSLASLYQF", "soluble fraction (log2)": 0.0182}
{"sequence": "HMGNKDAQLVHLAKMNEIQIELMKTGRGYMVTDQNVYNLAKKMGENMGFKHPDLFLTDPAKV", "soluble fraction (log2)": -0.0553}
{"sequence": "HMTEDNDLETIAYDILKERNLNNININVKNGVLNIYGKTETLKEKREIEKILSSLNVSKINNLIKI", "soluble fraction (log2)": 0.315}
{"sequence": "HMAPTPAGNLRSLKSEIVNYTRQSSTAYVYTFKDLSSGELYTARASRYYAAAGDTAYISTAAGAITDM", "soluble fraction (log2)": 0.0171}
{"sequence": "HMRTIVSELNDIKGISDASAKKLLIRYGSFEAVREAVMKHEEEFELDMGKRITGALTRYFYEE", "soluble fraction (log2)": -1.61}
{"sequence": "HMFDDEELDRFAGVPADAYLPADEDEFREVFYTMRPGEVVEWVRSLELRHIEIPNGIKDEIFMMIR", "soluble fraction (log2)": -3.35}
{"sequence": "HMKKKVDSENLLLDILKQMQPQASTNVLRKMLTNQRISVDDQIIHRAKHVVQEGQTVEIHPKP", "soluble fraction (log2)": 0.00763}
{"sequence": "HMAQWGFNGSEAGDLSFQQGDVIEVVEKVKDDWWRGRVLGSTEIGLFPS", "soluble fraction (log2)": -0.225}
{"sequence": "HMAEAAVELSQQILARLLEAGGSLPLSDKSSPEDIHRLFGVSKRTFKKAIGGLYKKGLILIHPERIELP", "soluble fraction (log2)": -0.588}
{"sequence": "HMDDFSETLLQYIKEKGGHISLNDKTDAGVIYETFGVSKKTFKKAVGDLYKKRLIVLEDTGIRL", "soluble fraction (log2)": -0.0801}
{"sequence": "HMDRELVALVQKALSQLSEQQRRIVELHVMEGMKYLEIADLLQLSENTVRTHLKRAYKILRENH", "soluble fraction (log2)": -1.76}
{"sequence": "HMLNNVDIHKLSEDLLLYKIKIDIKLKNIEDAISTIDYFSNKFPNSDLMPYVIYEKKLIDNI", "soluble fraction (log2)": -2.5}
{"sequence": "HMAPEEIPLDRVVRLVEQGRVESIVVTGERLEVTLQNGTVYGSTKENGVGFMETLDRYQVPLEQRDFSYEV", "soluble fraction (log2)": -0.0708}
{"sequence": "HMQKAEQIGSLLREKRKSMGLTQDELAQQVEVRRQTLADLELGKNVGSHLLIKVMEHLGVGFDLL", "soluble fraction (log2)": -0.192}
{"sequence": "HMQASPADLLSDRELEVFQLTGEWKTTRQIAQELHLSVKTIEYYREQIKRKLNLKSAAELTQHATAWVQRG", "soluble fraction (log2)": -0.361}
{"sequence": "HMKAQVKSVLDEIPGVGPTRRKALMKHFTSIEEIKQAEFETLLEAEGMNRAAAQSVYDFFHN", "soluble fraction (log2)": -0.138}
{"sequence": "HMFHFELNAAKQALEDRKTIDRAKGILMRQRGMSEDDAYKLLRTTAMSQNRKVIDVAQALVTAADLL", "soluble fraction (log2)": -0.0832}
{"sequence": "HMEHGQWLSEAQGASLAADWLARRRGVLPLNARRHLSGLSDQIARQIEGGLSREAGLYTAHEMMESLDP", "soluble fraction (log2)": -0.224}
{"sequence": "HMIEMGNRIRTLRKRRVGSQSEFAEKLDVSVVTISRIENGMTKIDAELLIKMSEVLQVPVNIILGM", "soluble fraction (log2)": -3.22}
{"sequence": "HMSVVKPIYIGMMTSEVEAIMGKPFEVITNNNSKNNQLWIYKYQDKRSVMLTFTNYKLIKIE", "soluble fraction (log2)": -0.819}
{"sequence": "HMDSGVPEWLASALRASPVAWKNFLALPPSHQRRYVGWISSARRDETRNRRIAEAISLLVEHKRLG", "soluble fraction (log2)": -1}
{"sequence": "HMGNRQEQVRIIRDLWRQLADAGQPVPAKHLTLDLDALDATQLTKLEDQAHGWLAKLSAQADLADAA", "soluble fraction (log2)": -0.0488}
{"sequence": "HMQISLAAARVNAGLTQEEVAKAMKVGKQTIVSWEKGNSEPKMSQSRELSELYKIPLDYIFYP", "soluble fraction (log2)": -0.322}
